From the nanobody polyreactivity screen of Harvey et al. (2022)

Test: yeast display, Sf9 membrane polyspecificity reagent, FACS + sequencing; frameworks hold sequencing errors
Summary of the method: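 Using colony PCR, genes from sorted yeast display clones were amplified, then sequenced on MiSeq at 2 × 250 and filtered by CDR length. The clones had been stained with 10% biotinylated, detergent-solubilized Sf9 membrane reagent for 1 hour at 4 °C and sorted by FACS into low and high (top ~1%) gates on anti-HA and streptavidin fluorescence. Polyreactivity labels come from the gate of origin.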

Row | Sequence | polyreactivity (PSR sort gate)
1 | QVQLVESGGGLVQAGGSLRLSCAASGSTFRRNAMGWYRQSPGKERELVAAISWRGGSTYYADSVKGRFTISRDYAKNTVYLQMNSLKPEDTAVYYCNTYHPYWGSGFDYWGQGTQVTVSS | low polyreactivity
2 | QVQLVESGGGLVQAGGSLRLSCAASGSTFRRNTMGWYTQAPGKERELVAGISSSGGSTYYADSVKGRFTISRDNAKNTVYLQMNSLNPEDTAVYYCDARFYVSYVGYNYWGHGTQVTVSS | high polyreactivity
3 | QVQLVESGGGLVQAGGSLRLSCAASGSTFRRYAMGWYRQAPGKEREFVAGITFSGVSTYYADSVKGRFTISRDNAKNTVYLQMNSLKPEDTAVYYCNRRPKYVDNDYWGQGTQVTVSS | high polyreactivity
4 | QVQLVESGGGLVQAGGSLRLSCAASGSTFRRYAMGWYRQAPGKERELVAAITGSGGRTYYADSVKGRFTISRDNAKNTVYLQMNSLKPEDTAVYYCAKDSYTRPRGYDYWGQGTQVTVSS | high polyreactivity
5 | QVQLVESGGGLVQAGGSLRLSCAASGSTFRRYAMGWYRQAPGKERELVATISSGGRTNYADSVKGRFTISRDNAKNTVYLQMNSLKPEDTAVYYCAARPYYYERSAGYYWGQGTQVTVSS | high polyreactivity
6 | QVQLVESGGGLVQAGGSLRLSCAASGSTFRSNAMGWYRQAPGKERELVAAISSRVGTTYYADSVKGRFTISRDNAKNTVYLQMNSLKPEDTAVYYCAAQGWRYYRTVVPMDYWGQGTQVTVSS | low polyreactivity
7 | QVQLVESGGGLVQAGGSLRLSCAASGSTFRSNAMGWYRQAPGKERELVASINWSGDSTYYADSVKGRFTISRDNAKNTVYLQMNSLKPEDTAVYYCNAVVDTTEYPYEYDYWGQGTQVTVSS | low polyreactivity
8 | QVQLVESGGGLVQAGGSLRLSCAASGSTFRSNVMGWYRQAPGKERELVAAITSSGGSTYYADSVKGRFTISRDNAKNTVYLQMNSLKPEDTAVYYCAVDYYYGFDWGQGTQVTVSS | low polyreactivity
9 | QVQLVESGGGLVQAGGSLRLSCAASGSTFRSYAMGWYRQAPGKERELVAAISVSGGSTYYADSVKGRFTISRDNAKNTVYLQMNSLKPEDTAVYYCAASYVPSYAPGRYYYWGQGTQVTVSS | high polyreactivity
10 | QVQLVESGGGLVQAGGSLRLSCAASGSTFRTNAMGWYRQAPGKERELVARIRYSVGSTYYADSVKGRFTISRDNAKNTVYLQMNSLKPEDTAVYYCAAENQRVGTFREHDSWGQGTQVTVSS | low polyreactivity
11 | QVQLVESGGGLVQAGGSLRLSCAASGSTFRTNVMGWYRQAPGKERELVAAITKRGSITYYADSVKGRFTISRDNAKNTVYFQMNSLKPEDTAVYYCAARKVAVGGYGYWGQGTQVTVSS | high polyreactivity
12 | QVQLVESGGGLVQAGGSLRLSCAASGSTFRTYAMGWYRQAPGKERELVADITWRGGSTYYADSVKGRFTISRDNAKNTVYLQMNSLKPEDTAGYYCATDRGPEVVLYDYWGQGTQVTVSS | low polyreactivity
13 | QVQLVESGGGLVQAGGSLRLSCAASGSTFRTYAMGWYRQAPGKVRELVAAITNGGSTYADSVKGRFTISRDNAKNTVYLQMNSLKPEDTAVYYCNADFGFGYVSLLYEYWGQGTQVTVSS | low polyreactivity
14 | QVQLVESGGGLVQAGGSLRLSCAASGSTFRTYAMGWYRQAPGQERELVAASDSSGGNTYYADSVKGRCTISRDPAKNTVYLQMNSLKPEDTAVYYCARESVTYFWYYTPEVDYWGQGTQVTVSS | low polyreactivity
15 | QVQLVESGGGLVQAGGSLRLSCAASGSTFRTYTMGWYRQAPGKERELVAAISSIGSSTFYADSVKGRFTISRDNAKNTVYLQMISLKPEDTAVYYCAAVRRGGGVIYDYWGQGTQVTVSS | high polyreactivity
16 | QVQLVESGGGLVQAGGSLRLSCAASGSTFRTYVMGWYRQAPGKERELVAAITRSGVSTSYADSVKGRFTISRDNAKNTVYLQMNSLKPEDTAVYYCAATKYDDGYSWTHYYYWGQGTQVTVSS | high polyreactivity
17 | QVQLVESGGGLVQAGGSLRLSCAASGSTFRVNAMGWYRQAPGKERELVAAISSSGGITYYADSVKGRFTISRDNAKNTVYLQMNSLKPEDTAVYYCAKGTVIHVLYDYWGQGTQVTVSS | low polyreactivity
18 | QVQLVESGGGLVQAGGSLRLSCAASGSTFRWNAMGWYRQAPGKETELVAAITRSVGSTYYADSVKGRFTISRDNAKNTVYLQMNSLKPEDTAVYYCAADFYYYGFDYWGQGTQVTVSS | low polyreactivity
19 | QVQLVESGGGLVQAGGSLRLSCAASGSTFRWYDMGGYRQAPGKEREFVAAITSSGGSTYYADSVKGRFTISRDNAKNTVYLQMNSLKPEYNAVYYCNRRYQPYSYDYWGQGTQVTVSS | high polyreactivity
20 | QVQLVESGGGLVQAGGSLRLSCAASGSTFRWYTMGWYRQAPGKERELVAAINQSGSRTYYADSVKGRFTISRDNAKNTVYLQMNSLKPEDTAGYYCNAKSYKSPHTYYYWGQGTQVTVSS | high polyreactivity
21 | QVQLVESGGGLVQAGGSLRLSCAASGSTFRYNAMGWYRQAPGKERELVAAINRGGGTDYADSVKGRFTISRDNAKNTVYLQMNSLKPEDTAVYYCAKQFVSYNRWLAYGYWGQGTQVTVSS | low polyreactivity
22 | QVQLVESGGGLVQAGGSLRLSCAASGSTFRYNAMGWYRQAPGKERELVAAINWSGSSTYYADSVKGRVTISRDNAKNTVYLQMNRLKPEDTAVNYCAAERPWYTKWGEYWGQGTQVTVSS | high polyreactivity

Row | Sequence | polyreactivity (PSR sort gate)
23 | QVQLVESGGGLVQAGGSLRLSCAASGSTFRYNAMGWYRQAPGKERELVAAITSSGSRTYYADSVKGRFTISRDNAKNTVYFQMISLKPEDTAVYYCAAYGYYTKVTKYDYWGQGTQVTVSS | high polyreactivity
24 | QVQLVESGGGLVQAGGSLRLSCAASGSTFRYNAMGWYRQAPGKERELVASISYNGGNTYYADSVKGRFTISRDNSKNTVYLQMNSLKPEDTAVYYCAAVPIKRGLILGDRGYNYWGQGTQVTVSS | high polyreactivity
25 | QVQLVESGGGLVQAGGSLRLSCAASGSTFRYNAMGWYRQEPGKERELVAAISSSGGSTRYADSVKGRFTISRDNAKNTVYLQMNSLKPEDTAVYHCAVRFYDWRYYYWGQGTQVTVSS | high polyreactivity
26 | QVQLVESGGGLVQAGGSLRLSCAASGSTFRYNTMGWYRQAPGKERELVARITSVGSTNYADSVKGRFTISRDNAKNTVYLQMNSLKPEDTAVYYCATTRPIRRTSARYNYWGQGTQVTVSS | low polyreactivity
27 | QVQLVESGGGLVQAGGSLRLSCAASGSTFRYYAKGWYRQAPGKERELVAAINYGGGRTYYADSVKGRFTISRDIAKNTVYLQMNSLKPEDTAVYYCATGYYYYRFYTYGYWGQGTQVTVSS | high polyreactivity
28 | QVQLVESGGGLVQAGGSLRLSCAASGSTFRYYALGWYRQAPGKEREVVASISIGGGSTYYADSVKGRFTISRDYAKNTVYVQMNSLKPEDTAVYYCAAERTIRAARPFFRTFDYWGQGTQVTVSS | low polyreactivity
29 | QVQLVESGGGLVQAGGSLRLSCAASGSTFRYYAMGWYRQAPGKEREFVAAINWSGTSTYYADSVKGRFTISRDNAKNTVYLQMNRLKPEDTAVYYCNARYGLRYVRYGEMDYWGQGTQVTVSA | high polyreactivity
30 | QVQLVESGGGLVQAGGSLRLSCAASGSTFRYYAMGWYRQAPGKERELVAAIDWSGGTTYYADSVKGRFTISRDNAKNTFYLQMNSLKPEDTAVYYCAADSSRRIGEDYWGHGTQVTVSS | low polyreactivity
31 | QVQLVESGGGLVQAGGSLRLSCAASGSTFRYYAMGWYRQAPGKERELVAAISRRGGSSYYADSVKGRFTISRDNAKKTVYLQMNSLKPEDTAVYYCNAAASTFTSWIRGPGVCYDYWGQGTQVTVSS | high polyreactivity
32 | QVQLVESGGGLVQAGGSLRLSCAASGSTFRYYAMGWYRQAPGKERELVAAISRSGGRTYYADSVKGRFTISRDNAKNTAYLQMNRLKPEDTAVYYCAVVVWWFTGCLGPYDYWGKGTQVTVSS | high polyreactivity
33 | QVQLVESGGGLVQAGGSLRLSCAASGSTFRYYAMGWYRQAPGKERELVAAISYGGGITNYADSVKGRLTISRDNAKNTVYLQMNSLKPEDTAVYYCAAYDRITRYDYWGQGTQVTVSS | high polyreactivity
34 | QVQLVESGGGLVQAGGSLRLSCAASGSTFRYYAMGWYRQAPGKERELVAAITWSGGRTTYADSVKGRFTISRDNAKNTVYLQMNSLKPEDTAVYYCAAEWHYFVTMYYWGQGTQVTVSS | low polyreactivity
35 | QVQLVESGGGLVQAGGSLRLSCAASGSTFRYYAMGWYRQAPGKERELVAGITRIGGRTYYADSVKGRFTISRDNAKNTVDLQMNSLKPEDTAVYYCAADYGGFLGYDYWGQGTQVTLSS | high polyreactivity
36 | QVQLVESGGGLVQAGGSLRLSCAASGSTFRYYAMGWYRQAPGKERELVASITWSGGSTYYADSVKGRFTISRDNAKNTVYLQMNSLKPEDTAVYYCAARQYIGSPPHRRRFDYWGQGTQVTVSS | high polyreactivity
37 | QVQLVESGGGLVQAGGSLRLSCAASGSTFRYYSMGWYRQAPGKERELVAAITYRGGRTYYADSVKGRFTISRDNAKNTDYLQKNSLKPEDTAVYYCAAKSGRHSMDSSGQGTQVTVSS | low polyreactivity
38 | QVQLVESGGGLVQAGGSLRLSCAASGSTFRYYTMGWYRQAPGKERELVAAISSSGTRTYYADSVKGRFTISRDYAKNTVYLQMNSLKPEDTAVYYCDTVFLRSDGWRRSNMDYWGQGTQVTVSS | high polyreactivity
39 | QVQLVESGGGLVQAGGSLRLSCAASGSTFRYYTMGWYRQAPGKERELVAAITWSGGSTYYADSVKGRFTISRDNAKNTVYLQMNSLKPEDTAVYYCAADRYSYGSNGYPRFEYYYWGQGTQVTVSS | high polyreactivity
40 | QVQLVESGGGLVQAGGSLRLSCAASGSTFSANTMGWYRQAPGKERELVAAISSSGVGTRYADSVKGRFTISRDNAKNTVYLQMNSLKPEDTAVYYCNADLYGGGDKSVISGLNGEYEYWGQGTQVTVSS | low polyreactivity
41 | QVQLVESGGGLVQAGGSLRLSCAASGSTFSANTMGWYRQAPGKQREFVAAISSSGVGTRYADSVKGRFTISRDYAKNTVYLQMNSLKPEDTAVYYCAADYRPTVITRNDYWGQGTQVTVSS | low polyreactivity
42 | QVQLVESGGGLVQAGGSLRLSCAASGSTFSDNAMGWSRQAPGKERELVATIDYDGSTYYADSVKGRFTISRDNAKNTVYLQMNSLRTEDTAVYYCAADVYQVPGPYWSRTYEYDYWGQGTQVTVSS | low polyreactivity
43 | QVQLVESGGGLVQAGGSLRLSCAASGSTFSDNAMGWYRQAPGKERELVAAITSGGSTYYADSVKGRFTISRDNAKNTVYLQMNSLKPEDTAVYYCATGGVTFGSVVRGVDGDYWGQGTQVTVSS | low polyreactivity
